From patent US20160061835A1 (BAYLOR COLLEGE OF MEDICINE, published 2016)

Target: T1, Norwalk virus (NV) virus-like particle (Norwalk virus (genotype GI.1), UniProt Q83884 1-530; Q83885 1-212)
T1 construct: also called NV-VLP; NV-VLPs
T1 sequence 1: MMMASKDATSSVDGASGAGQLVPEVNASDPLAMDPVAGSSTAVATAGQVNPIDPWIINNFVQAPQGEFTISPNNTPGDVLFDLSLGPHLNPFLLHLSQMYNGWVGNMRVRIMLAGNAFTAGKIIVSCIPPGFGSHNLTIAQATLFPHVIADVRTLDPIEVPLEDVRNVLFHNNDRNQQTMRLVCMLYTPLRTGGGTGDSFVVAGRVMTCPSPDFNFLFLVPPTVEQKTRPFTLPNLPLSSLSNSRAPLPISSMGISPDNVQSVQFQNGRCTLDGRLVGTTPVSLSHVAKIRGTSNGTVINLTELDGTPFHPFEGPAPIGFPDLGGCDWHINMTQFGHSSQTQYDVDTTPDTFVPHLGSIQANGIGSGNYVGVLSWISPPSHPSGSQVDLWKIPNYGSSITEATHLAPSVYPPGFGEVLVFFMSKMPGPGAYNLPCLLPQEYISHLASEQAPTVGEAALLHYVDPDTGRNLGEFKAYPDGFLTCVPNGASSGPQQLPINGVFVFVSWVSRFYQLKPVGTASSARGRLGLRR
T1 sequence 2: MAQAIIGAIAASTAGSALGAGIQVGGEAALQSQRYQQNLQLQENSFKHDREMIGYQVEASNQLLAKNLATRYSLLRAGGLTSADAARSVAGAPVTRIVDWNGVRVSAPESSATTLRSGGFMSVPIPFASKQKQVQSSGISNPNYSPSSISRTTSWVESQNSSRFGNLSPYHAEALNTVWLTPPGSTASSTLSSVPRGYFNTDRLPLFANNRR
Test: capture ELISA: NV-VLP captured by immobilized polyclonal antibody, M13 phage antibody detection

B1: non-peptide displaying M13 phage (other)
chain: AETVESCLAKPHTENSFTNVWKDDKTLDRYANYEGCLWNATGVVVCTGDETQCYGTWVPIGLAIPENEGGGSEGGGSEGGGSEGGGTKPPEYGDTPIPGYTYINPLDGTYPPGTEQNPANPNPSLEESQPLNTFMFQNNRFRNRQGALTVYTGTVTQGTDPVKTYYQYTPVSSKAMYDAYWNGKFRDCAFHSGFNEDPFVCEYQGQSSDLPQPPVNAGGGSGGGSGGGSEGGGSEGGGSEGGGSEGGGSGGGSGSGDFDYEKMANANKGAMTENADENALQSDAKGKLDSVATDYGAAIDGFIGDVSGLANGNGATGDFAGSNSQMAQVGDGDNSPLMNNFRQYLPSLPQSVECRPFVFSAGKPYEFSIDCDKINLFRGVFAFLLYVATFMYVFSTFANILRNKES
notes: Whole phage particle used as negative control; also called M13 control phage
Does B1 bind?
Result: no binding
